Experimental data from US20260265403A1 (TJ BIOPHARMA SHANGHAI, published 2026).

Tests used:
Human CD24 [1] = target: T1, Human CD24 (human, UniProt P25063 27-59, limits assumed); assay: SPR, second 1:1 binding column set
T1 chain (looked up): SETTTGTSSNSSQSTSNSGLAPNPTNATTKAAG

Human CD24 [2] = target: T1, Human CD24; assay: SPR affinity ranking, 1:1 binding, analyte conc. 19.71 nM
Human CD24 [3] = target: T1, Human CD24; assay: affinity ranking; antibody as ligand, Human CD24 as analyte
human CD24 on cells [4] = target: T2, human CD24 on cells (human, UniProt P25063 27-59); assay: flow cytometry (GMFI), SKOV3 cells; EC50 table under the graphs [Cont'd) B]
T2 construct: whole, on cells; One molecule for all cell lines; the cell line is named under assay or readout; also called cell surface CD24; cell-based CD24
T2 chain (looked up): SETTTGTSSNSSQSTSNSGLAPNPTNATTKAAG

human CD24 on cells [5] = target: T2, human CD24 on cells; assay: flow cytometry (GMFI), MCF-7 cells; EC50 table under the graphs

B1: Antibody No 3, lead clone of 4451H (HC N35G; LC L33G, T97I) (antibody, V domains shown)
VH: QVQLVQSGAEVKKPGASVKVSCKASGYDFTGYHMGWVRQAPGQGLEWMGEINPITSDKTFNQKFKSRVTMTRDTSISTAYMELSRLRSDDTAVYYCARRDYGTSLDYWGQGTTVTVSS
VL: DIQLTQSPSFLSASVGDRVTITCRASKSISKYGAWYQQKPGKAPKLLIYAGSTLHSGIPSRFRGSGSGTEFTLTISSLQPEDFATYYCQQHNEYPIIFGQGTKLEIK
Question: What does the source list for B1?
Answer: Kd (Human CD24 [1]): 4.6 nM; koff (Human CD24 [1]): 0.00766 s⁻¹; kon (Human CD24 [1]): 1.66e+06 M⁻¹ s⁻¹; Kd (Human CD24 [2]): 7.09 nM; koff (Human CD24 [2]): 0.00827 s⁻¹; kon (Human CD24 [2]): 1.17e+06 M⁻¹ s⁻¹

B2: VH1 + VL1 (humanized 4451) (antibody, V domains shown)
VH: QVQLVQSGAEVKKPGASVKVSCKASGYDFTGYHMNWVRQAPGQGLEWMGEINPITSDKTFNQKFKSRVTMTRDTSISTAYMELSRLRSDDTAVYYCARRDYGTSLDYWGQGTTVTVSS
VL: DIQLTQSPSFLSASVGDRVTITCRASKSISKYLAWYQQKPGKAPKLLIYAGSTLHSGVPSRFSGSGSGTEFTLTISSLQPEDFATYYCQQHNEYPITFGQGTKLEIK
notes: IgG expressed in HEK293
Question: For B2, which Kd (Human CD24 [3]) is on record?
Answer: Its Kd is 17.6 nM.

Question: What about the koff (Human CD24 [3]) of the same binder?
Answer: The koff was 0.0169 s⁻¹.

Question: What about the kon (Human CD24 [3]) of the same binder?
Answer: The kon was 958000 M⁻¹ s⁻¹.

Question: What about the EC50 (human CD24 on cells [4]) of the same binder?
Answer: The EC50 was 0.45 µg/mL.

Question: And the EC50 (human CD24 on cells [5])?
Answer: Its EC50 is 0.43 µg/mL.

B3: Antibody No 14, lead clone of 4451H (HC T59Y; LC T97I) (antibody, V domains shown)
VH: QVQLVQSGAEVKKPGASVKVSCKASGYDFTGYHMNWVRQAPGQGLEWMGEINPITSDKYFNQKFKSRVTMTRDTSISTAYMELSRLRSDDTAVYYCARRDYGTSLDYWGQGTTVTVSS
VL: DIQLTQSPSFLSASVGDRVTITCRASKSISKYLAWYQQKPGKAPKLLIYAGSTLHSGIPSRFRGSGSGTEFTLTISSLQPEDFATYYCQQHNEYPIIFGQGTKLEIK
Question: For B3, which Kd (Human CD24 [2]) is on record?
Answer: The Kd was 8.3 nM.

Question: And the koff (Human CD24 [2])?
Answer: The koff was 0.0604 s⁻¹.

Question: What about the kon (Human CD24 [2]) of the same binder?
Answer: The kon was 7.28e+06 M⁻¹ s⁻¹.

B4: Antibody No 9, lead clone of 4451H (HC T59Y; LC S30K, T97I) (antibody, V domains shown)
VH: QVQLVQSGAEVKKPGASVKVSCKASGYDFTGYHMNWVRQAPGQGLEWMGEINPITSDKYFNQKFKSRVTMTRDTSISTAYMELSRLRSDDTAVYYCARRDYGTSLDYWGQGTTVTVSS
VL: DIQLTQSPSFLSASVGDRVTITCRASKSIKKYLAWYQQKPGKAPKLLIYAGSTLHSGIPSRFRGSGSGTEFTLTISSLQPEDFATYYCQQHNEYPIIFGQGTKLEIK
Question: B4 was tested. Which Kd (Human CD24 [2]) did it give?
Answer: The Kd was 11.4 nM.

Question: And the koff (Human CD24 [2])?
Answer: Its koff is 0.06 s⁻¹.

Question: And the kon (Human CD24 [2])?
Answer: The kon was 5.27e+06 M⁻¹ s⁻¹.

B5: Antibody No 11, lead clone of 4451H (HC T59Y; LC K27A) (antibody, V domains shown)
VH: QVQLVQSGAEVKKPGASVKVSCKASGYDFTGYHMNWVRQAPGQGLEWMGEINPITSDKYFNQKFKSRVTMTRDTSISTAYMELSRLRSDDTAVYYCARRDYGTSLDYWGQGTTVTVSS
VL: DIQLTQSPSFLSASVGDRVTITCRASASISKYLAWYQQKPGKAPKLLIYAGSTLHSGIPSRFRGSGSGTEFTLTISSLQPEDFATYYCQQHNEYPITFGQGTKLEIK
Question: With B5 as the binder, how does the Kd (Human CD24 [2]) read?
Answer: Its Kd is 14.1 nM.

Question: What about the koff (Human CD24 [2]) of the same binder?
Answer: The koff was 0.0171 s⁻¹.

Question: What about the kon (Human CD24 [2]) of the same binder?
Answer: Its kon is 1.21e+06 M⁻¹ s⁻¹.

B6: Antibody No 6, lead clone of 4451H (HC N35G; LC L33G) (antibody, V domains shown)
VH: QVQLVQSGAEVKKPGASVKVSCKASGYDFTGYHMGWVRQAPGQGLEWMGEINPITSDKTFNQKFKSRVTMTRDTSISTAYMELSRLRSDDTAVYYCARRDYGTSLDYWGQGTTVTVSS
VL: DIQLTQSPSFLSASVGDRVTITCRASKSISKYGAWYQQKPGKAPKLLIYAGSTLHSGIPSRFRGSGSGTEFTLTISSLQPEDFATYYCQQHNEYPITFGQGTKLEIK
Question: B6 was tested. Which Kd (Human CD24 [1]) did it give?
Answer: The Kd was 3.86 nM.

Question: What about the koff (Human CD24 [1]) of the same binder?
Answer: Its koff is 0.00763 s⁻¹.

Question: What about the kon (Human CD24 [1]) of the same binder?
Answer: Its kon is 1.98e+06 M⁻¹ s⁻¹.

Question: And the Kd (Human CD24 [2])?
Answer: The Kd was 5.11 nM.

Question: What about the koff (Human CD24 [2]) of the same binder?
Answer: Its koff is 0.00796 s⁻¹.

Question: What about the kon (Human CD24 [2]) of the same binder?
Answer: Its kon is 1.56e+06 M⁻¹ s⁻¹.

B7: VH2 + VL4 (humanized 4451) (antibody, V domains shown)
VH: QVQLVQSGAEVKKPGASVKVSCKASGYDFTGYHMNWVRQAPGQGLEWIGEINPITSDKTFNQKFKSRVTMTVDTSISTAYMELSRLRSDDTAVYYCARRDYGTSLDYWGQGTTVTVSS
VL: DIQLTQSPSFLSASVGDRVTIYCRASKSISKYLAWYQQKPGKAPRLLIYAGSTLHSGIPSRFRGSGSGTEFTLTISSLQPEDFATYYCQQHNEYPITFGQGTKLEIK
notes: IgG expressed in HEK293
Question: How did the Kd (Human CD24 [3]) turn out when B7 was run?
Answer: Its Kd is 19.7 nM.

Question: And the koff (Human CD24 [3])?
Answer: The koff was 0.0229 s⁻¹.

Question: What about the kon (Human CD24 [3]) of the same binder?
Answer: The kon was 1.16e+06 M⁻¹ s⁻¹.

B8: Antibody No 16, lead clone of 4451H (HC N35G, T59Y; LC S30K) (antibody, V domains shown)
VH: QVQLVQSGAEVKKPGASVKVSCKASGYDFTGYHMGWVRQAPGQGLEWMGEINPITSDKYFNQKFKSRVTMTRDTSISTAYMELSRLRSDDTAVYYCARRDYGTSLDYWGQGTTVTVSS
VL: DIQLTQSPSFLSASVGDRVTITCRASKSIKKYLAWYQQKPGKAPKLLIYAGSTLHSGIPSRFRGSGSGTEFTLTISSLQPEDFATYYCQQHNEYPITFGQGTKLEIK
Question: With B8 as the binder, how does the Kd (Human CD24 [1]) read?
Answer: Its Kd is 6.99 nM.

Question: What about the koff (Human CD24 [1]) of the same binder?
Answer: Its koff is 0.00808 s⁻¹.

Question: And the kon (Human CD24 [1])?
Answer: The kon was 1.16e+06 M⁻¹ s⁻¹.

Question: What about the Kd (Human CD24 [2]) of the same binder?
Answer: Its Kd is 7.51 nM.

Question: And the koff (Human CD24 [2])?
Answer: Its koff is 0.016 s⁻¹.

Question: What about the kon (Human CD24 [2]) of the same binder?
Answer: Its kon is 2.13e+06 M⁻¹ s⁻¹.

B9: Antibody No 17, lead clone of 4451H (HC N35G, T59Y; LC L33G) (antibody, V domains shown)
VH: QVQLVQSGAEVKKPGASVKVSCKASGYDFTGYHMGWVRQAPGQGLEWMGEINPITSDKYFNQKFKSRVTMTRDTSISTAYMELSRLRSDDTAVYYCARRDYGTSLDYWGQGTTVTVSS
VL: DIQLTQSPSFLSASVGDRVTITCRASKSISKYGAWYQQKPGKAPKLLIYAGSTLHSGIPSRFRGSGSGTEFTLTISSLQPEDFATYYCQQHNEYPITFGQGTKLEIK
Question: Which results are given for B9?
Answer: Kd (Human CD24 [1]): 3.41 nM; koff (Human CD24 [1]): 0.00419 s⁻¹; kon (Human CD24 [1]): 1.23e+06 M⁻¹ s⁻¹; Kd (Human CD24 [2]): 4.42 nM; koff (Human CD24 [2]): 0.0069 s⁻¹; kon (Human CD24 [2]): 1.56e+06 M⁻¹ s⁻¹
